Fold induction of luminescence and IC50 data for 2 molecules are collected here from paper PMC9175492.

What is called IC50 is the point on the concentration scale where inhibition reaches its midpoint.

In test [1] the target is LgBit, an 18-kDa subunit of NanoLuc. The test is described as follows: split reporter.
Test [2] has as its target Kelch domain of Kelch-like ECH-associated protein 1 (Keap1). The test is described as follows: fluorescence polarisation. A general note: Fluorescence polarisation rises when a labelled molecule tumbles more slowly, as on binding a larger partner.

With VSGWRLFKKIS [HiBit, an 11-residue peptide derived from NanoLuc], the fold induction of luminescence at 10 μM in test [1] is 20 fold.
With GQLDPETGEFL (here or on the partner: cyclic peptide) [cyclic peptidyl inhibitor P1, Cyclo(…)], the IC50 in test [2] came out at 14 nM.
